Series [1] deals with murine splenocytes. Put plainly: Stability of intracellular STAT-6-IP in splenocytes (western blot, anti-phosphoSTAT-6 antibody). In kind it is cell-based. The settings on record: for Percent Maximum (±STD), intracellular STAT-6-IP: normalized to 100%. Here is the method:
(§1) To determine the half-life of the intracellular PTD4 peptide in the absence of further uptake, splenocytes were incubated with the FITC-PTD4 peptide for 4 hours, washed and trypsinized, and placed back into complete medium after which intracellular localization of the peptide was monitored over time by flow cytometry. […] To monitor stability of the murine-specific PTD4-STAT-6 peptide (STAT-6-IP; Tyr-Ala-Arg-Ala-Ala-Ala-Arg-Gln-Ala-Arg-Ala-Gly-Arg-Gly-Tyr*-Val-Ser-Thr-Thr; SEQ ID NO:7) in murine splenocytes, cells were incubated with the STAT-6-IP for four hours, after which they were washed and trypsinized. The presence of intracellular STAT-6-IP was monitored by western blot analysis of cell lysates harvested at different time points and resolved by SDS-PAGE. The STAT-6-IP was visualized using anti-phosphoSTAT-6 antibody and data normalized to 100% (Table 2).
(§2) To monitor stability of the STAT-6-IP in murine splenocytes, cells in DMEM/10% FBS were incubated with the STAT-6-IP (100 μM) for four hours, after which they were washed twice with PBS and trypsinized. Splenocytes were then incubated with soybean trypsin inhibitor (0.5 mg/mL in 10 mM sodium tetraborate) for 5 minutes. The cells were washed again once in PBS and subsequently placed back into complete medium. At different time points, cells were harvested and lysed in tricine sample buffer (100 mM Tris-HCl, pH 6.8, 24% glycerol, 8% SDS, 200 mM DTT). Lysates were clarified and equal concentrations (20 μg/lane) resolved by SDS-PAGE on 18% tris-tricine gels, after which proteins were transferred to PVDF membrane. For western immunoblot analysis, membranes were blocked for one hour in TBST (10 mM Tris-Cl pH 7.4, 2.5 mM EDTA, 150 mM NaCl, 0.1% TWEEN™-20) containing 0.25% gelatin (bloom 275) at room temperature. Blots were incubated with anti-phosphoSTAT-6 antibodies overnight at 4° C. followed by horseradish peroxidase-conjugated bovine anti-rabbit secondary antibody for one hour. Immunoreactive bands were detected by enhanced chemiluminescence, ECLT™ (Amersham Life Sciences, San Francisco, Calif.), visualized and quantified on a FLUORCHEM™ 8000 Imaging System using ALPHAEASE™ software (Alpha Innotech, San Leandro, Calif.).
A general note: A western blot detects proteins with antibodies after separation by electrophoresis.

Experiment in series [2]: as above
The series is classed as cell-based, murine. The settings on record: mouse, murine splenocytes (intracellular peptide after loading); 4 hours loading at 100 μM, washed, trypsinized. Here is the method: as §1, §2

Series [3] has as its system murine splenocytes. In kind it is cell-based. The settings on record: mouse. As for the experimental part:
as §1
To monitor peptide uptake, splenocytes in Dulbecco's Modified Eagle Medium (DMEM)/10% fetal bovine serum (FBS) were incubated continuously with FITC-conjugated PTD4 peptide (100 μM) for 30 minutes to 24 hours. […] Ten thousand cells were subsequently analyzed by flow cytometry. […] Splenocytes were returned to DMEM/10% FBS and intracellular localization of peptide monitored over time by flow cytometry.

The subject of series [4] is murine splenocytes. Put plainly: Uptake of FITC-conjugated PTD4 peptide by splenocytes (flow cytometry). In kind it is cell-based. As to conditions: for Percent Maximum (±SEM), peptide uptake: FITC-PTD4 100 μM, normalized to 100%. As for the experimental part:
The ability of the PTD4 protein transduction domain to enter cells was confirmed by incubating murine splenocytes with FITC-conjugated PTD4 peptide (FITC-PTD4). Splenocytes were incubated with FITC-PTD4 for various times (30 minutes to 24 hours), subsequently washed and incubated with trypsin to remove surface bound peptide, and analyzed by flow cytometry. Data was normalized to 100%. Half-maximal peptide uptake occurred at 1 hour and plateaued after 4-6 hours (Table 1).
To monitor peptide uptake, splenocytes in Dulbecco's Modified Eagle Medium (DMEM)/10% fetal bovine serum (FBS) were incubated continuously with FITC-conjugated PTD4 peptide (100 μM) for 30 minutes to 24 hours. At each time point, surface bound peptide was removed by washing cells twice with phosphate-buffered saline (PBS) and then incubating cells with trypsin for five minutes. Ten thousand cells were subsequently analyzed by flow cytometry. To monitor the half-life of intracellular peptide (in the absence of uptake), splenocytes in DMEM/10% FBS were incubated with FITC-conjugated PTD4 peptide (100 μM) for four hours, after which they were washed twice with PBS and incubated with trypsin for five minutes. Splenocytes were returned to DMEM/10% FBS and intracellular localization of peptide monitored over time by flow cytometry.
In general terms: Flow cytometry measures light scatter and fluorescence of single cells or particles in a stream.

Where a SMILES comes first, the peptide text is derived from it. Where no end group is shown, it is not given here. [ ]: non-standard residue; d: D form. pY = N[C@@H](Cc1ccc(OP(=O)(O)O)cc1)C(=O)O

2 compounds from patent US7829528B2, “Compositions and methods for treating STAT-6 associated diseases or conditions” (The Rockefeller University, priority 2004, dated 2010) can be followed below.

By half-life is commonly meant the time needed for the level to fall by half in the phase considered. A low value points to rapid decline. In the case of `CC(C)[C@H](NC(=O)[C@H](Cc1ccc(OP(=O)(O)O)cc1)NC(=O)CNC(=O)[C@H](CCCNC(=N)N)NC(=O)CNC(=O)[C@H](C)NC(=O)[C@H](CCCNC(=N)N)NC(=O)[C@H](C)NC(=O)[C@H](CCC(N)=O)NC(=O)[C@H](CCCNC(=N)N)NC(=O)[C@H](C)NC(=O)[C@H](C)NC(=O)[C@H](C)NC(=O)[C@H](CCCNC(=N)N)NC(=O)[C@H](C)NC(=O)[C@@H](N)Cc1ccc(O)cc1)C(=O)N[C@@H](CO)C(=O)N[C@H](C(=O)N[C@H](C(=O)O)[C@@H](C)O)[C@@H](C)O` [STAT-6-IP, Tyr-Ala-Arg-Ala-Ala-Ala-Arg-Gln-Ala-Arg-Ala-Gly-Arg-Gly-Tyr*-Val-Ser-Thr-Thr] (H-YARAAARQARAGRG[pY]VSTT-OH; N-terminus and C-terminus assumed), the “Percent Maximum (±STD), intracellular STAT-6-IP” value in the series on murine splenocytes [1] (0.5 hours after 4 hours loading at 100 μM) is reported as 100.00 ± 0.00%; in the series with murine splenocytes [1] (1.0 hours after 4 hours loading at 100 μM), 93.69 ± 17.14%; with murine splenocytes [1] (4.0 hours after 4 hours loading at 100 μM), 68.33 ± 17.42%; in the series on murine splenocytes [1] (6.0 hours after 4 hours loading at 100 μM), 66.56 ± 15.04%; in the series with murine splenocytes [1] (8.0 hours after 4 hours loading at 100 μM) it was 46.47 ± 15.98%; in the series with murine splenocytes [1] (24.0 hours after 4 hours loading at 100 μM), 38.50 ± 51.74%. The “Time peptide remained in the cells” value with murine splenocytes [1] (4 hours loading at 100 μM, washed, trypsinized) is “up to 24 hours”. In addition, the half-life at 100 μM in series [2] is about 8 h.

With “FITC-PTD4: FITC-conjugated PTD4 protein transduction domain peptide (PTD4: Tyr-Ala-Arg-Ala-Ala-Ala-Arg-Gln-Ala-Arg-Ala; SEQ ID NO:6) (YARAAARQARA; not fully specified (N-terminus); printed as Tyr-Ala-Arg-Ala-Ala-Ala-Arg-Gln-Ala-Arg-Ala; also: FITC label, position not given here)”, the “Half-life of intracellular peptide” value in the series with murine splenocytes [3] is recorded as “approximately four”. Besides, the “Percent Maximum (±SEM), peptide uptake” value with murine splenocytes [4] (0 hours) is 4.16 ± 0.53%; in the series with murine splenocytes [4] (0.5 hours) it was 31.2 ± 4.35%; with murine splenocytes [4] (1.0 hours) it was 46.57 ± 6.63%; with murine splenocytes [4] (2.0 hours) it was 69.70 ± 8.60%; in the series on murine splenocytes [4] (4.0 hours), 72.86 ± 8.51%; in the series on murine splenocytes [4] (6.0 hours), 76.71 ± 7.58%. For the same compound, in the series on murine splenocytes [4] (24.0 hours), the “Percent Maximum (±SEM), peptide uptake” value was 78.49 ± 14.11%. The “Time after which peptide uptake plateaued” value in the series with murine splenocytes [4] (continuous incubation, 100 μM) is 4 to 6 h. In the series with murine splenocytes [4] (continuous incubation, 100 μM), the “Time of half-maximal peptide uptake” value turned out to be 1 h.
